Residue numbers refer to the chain shown, from its start.
T1: DLG3_1, Q92796
T1 sequence (Q92796 125-227, limits assumed, looked up): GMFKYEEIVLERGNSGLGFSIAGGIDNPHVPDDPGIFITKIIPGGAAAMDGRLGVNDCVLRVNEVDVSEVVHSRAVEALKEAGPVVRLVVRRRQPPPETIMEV

T2: DLG3_3, Q92796
T2 sequence (Q92796 374-475, limits assumed, looked up): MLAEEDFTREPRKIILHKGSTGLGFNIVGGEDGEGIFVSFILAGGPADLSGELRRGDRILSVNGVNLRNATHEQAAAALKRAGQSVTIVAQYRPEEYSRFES

T3: DVL3, Q92997
T3 sequence (Q92997 244-331, limits assumed, looked up): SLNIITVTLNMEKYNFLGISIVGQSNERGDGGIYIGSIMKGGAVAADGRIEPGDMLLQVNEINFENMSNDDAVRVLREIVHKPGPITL

T4: LIN7A, O14910
T4 sequence (O14910 103-200, limits assumed, looked up): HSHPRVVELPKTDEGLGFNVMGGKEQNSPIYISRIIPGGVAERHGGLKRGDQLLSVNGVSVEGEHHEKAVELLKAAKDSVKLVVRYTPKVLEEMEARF

T5: LIN7B, Q9HAP6
T5 sequence (Q9HAP6 88-185, limits assumed, looked up): T4 sequence (O14910 103-200, limits assumed, looked up) with S2A, V20I, I35V, E42D, H65Q, K77Q, D78G, K89R

T6: MPDZ_12, O75970
T6 sequence (O75970 1857-1958, limits assumed, looked up): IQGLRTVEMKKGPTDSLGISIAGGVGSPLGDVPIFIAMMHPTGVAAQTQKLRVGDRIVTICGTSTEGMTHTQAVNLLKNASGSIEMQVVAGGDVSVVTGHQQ

T7: PCLO, Q9Y6V0
T7 sequence (Q9Y6V0 4491-4600, limits assumed, looked up): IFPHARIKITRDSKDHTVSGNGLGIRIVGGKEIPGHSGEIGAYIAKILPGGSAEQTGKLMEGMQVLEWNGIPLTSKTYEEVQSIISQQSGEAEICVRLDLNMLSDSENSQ

T8: PTPN13_1, Q12923
T8 sequence (Q12923 1088-1188, limits assumed, looked up): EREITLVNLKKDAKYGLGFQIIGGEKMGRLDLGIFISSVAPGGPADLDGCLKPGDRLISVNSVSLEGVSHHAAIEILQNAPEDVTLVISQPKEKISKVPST

T9: SHANK1, Q9Y566
T9 sequence (Q9Y566 658-767, limits assumed, looked up): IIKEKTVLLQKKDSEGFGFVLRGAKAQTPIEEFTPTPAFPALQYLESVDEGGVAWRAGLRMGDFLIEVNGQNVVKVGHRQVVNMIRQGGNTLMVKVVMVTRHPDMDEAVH

T10: TX1BP3, O14907
T10 sequence (O14907 10-122, limits assumed, looked up): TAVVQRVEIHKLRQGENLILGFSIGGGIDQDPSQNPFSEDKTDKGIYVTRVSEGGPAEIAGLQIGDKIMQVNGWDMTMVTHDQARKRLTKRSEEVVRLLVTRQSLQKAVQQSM


Molecular target: ARHGEF12, Q9NZN5-2
Assay: holdup assay
Set-up: key: below the threshold = too weak to quantify, mostly under pKd 3.1 to 4
Conditions: plain residues with an end cap or a label only (N-terminal biotin on a linker: ado-ado)

Chain of ARHGEF12, Q9NZN5-2 (Q9NZN5 other isoform, or with tags, fused parts or gaps): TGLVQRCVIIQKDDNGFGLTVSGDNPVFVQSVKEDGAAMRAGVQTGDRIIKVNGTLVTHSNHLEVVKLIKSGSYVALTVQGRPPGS

**Q.** Which pKd does the source give for AHGSTRDQSI [KCNB1, Q14721] here?
**A.** below the threshold

Molecular target: DLG1_2, Q12959
Assay: holdup assay
Set-up: key: below the threshold = too weak to quantify, mostly under pKd 3.1 to 4
Conditions: plain residues with an end cap or a label only (N-terminal biotin on a linker: ado-ado)

Chain of DLG1_2, Q12959 (Q12959 314-412): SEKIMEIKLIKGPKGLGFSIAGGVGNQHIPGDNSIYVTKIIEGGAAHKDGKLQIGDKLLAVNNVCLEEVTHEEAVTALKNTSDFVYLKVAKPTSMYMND

**Q.** How did the pKd turn out when AHGSTRDQSI [KCNB1, Q14721] was run?
**A.** below the threshold

Molecular target: T1, DLG3_1, Q92796
Assay: holdup assay
Set-up: key: below the threshold = too weak to quantify, mostly under pKd 3.1 to 4
Conditions: plain residues with an end cap or a label only (N-terminal biotin on a linker: ado-ado)

**Q.** Which pKd does the source give for AHGSTRDQSI [KCNB1, Q14721] here?
**A.** 3.68

Molecular target: T2, DLG3_3, Q92796
Assay: holdup assay
Set-up: key: below the threshold = too weak to quantify, mostly under pKd 3.1 to 4
Conditions: plain residues with an end cap or a label only (N-terminal biotin on a linker: ado-ado)

**Q.** AHGSTRDQSI [KCNB1, Q14721] was tested. Which pKd did it give?
**A.** 3.75

Molecular target: DLG5_1, Q8TDM6
Assay: holdup assay
Set-up: key: below the threshold = too weak to quantify, mostly under pKd 3.1 to 4
Conditions: plain residues with an end cap or a label only (N-terminal biotin on a linker: ado-ado)

Chain of DLG5_1, Q8TDM6 (Q8TDM6 617-713): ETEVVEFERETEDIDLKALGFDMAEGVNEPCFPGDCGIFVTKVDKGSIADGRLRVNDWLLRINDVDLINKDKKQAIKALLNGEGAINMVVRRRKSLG

**Q.** Which pKd does the source give for AHGSTRDQSI [KCNB1, Q14721] here?
**A.** 4.06

Molecular target: T3, DVL3, Q92997
Assay: holdup assay
Set-up: key: below the threshold = too weak to quantify, mostly under pKd 3.1 to 4
Conditions: plain residues with an end cap or a label only (N-terminal biotin on a linker: ado-ado)

**Q.** AHGSTRDQSI [KCNB1, Q14721] was tested. Which pKd did it give?
**A.** 3.66

Molecular target: FRMPD2_1, Q68DX3
Assay: holdup assay
Set-up: key: below the threshold = too weak to quantify, mostly under pKd 3.1 to 4
Conditions: plain residues with an end cap or a label only (N-terminal biotin on a linker: ado-ado)

Chain of FRMPD2_1, Q68DX3 (Q68DX3 770-861): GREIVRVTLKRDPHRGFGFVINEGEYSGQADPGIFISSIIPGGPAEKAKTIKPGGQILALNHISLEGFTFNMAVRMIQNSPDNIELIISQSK

**Q.** With AHGSTRDQSI [KCNB1, Q14721] as the binder, how does the pKd read?
**A.** 3.65

Molecular target: GOPC, Q9HD26
Assay: holdup assay
Set-up: key: below the threshold = too weak to quantify, mostly under pKd 3.1 to 4
Conditions: plain residues with an end cap or a label only (N-terminal biotin on a linker: ado-ado)

**Q.** How did the pKd turn out when AHGSTRDQSI [KCNB1, Q14721] was run?
**A.** below the threshold

Molecular target: GORASP2, Q9H8Y8
Assay: holdup assay
Set-up: key: below the threshold = too weak to quantify, mostly under pKd 3.1 to 4
Conditions: plain residues with an end cap or a label only (N-terminal biotin on a linker: ado-ado)

**Q.** Which pKd does the source give for AHGSTRDQSI [KCNB1, Q14721] here?
**A.** 3.67

Molecular target: GRASP, Q7Z6J2
Assay: holdup assay
Set-up: key: below the threshold = too weak to quantify, mostly under pKd 3.1 to 4
Conditions: plain residues with an end cap or a label only (N-terminal biotin on a linker: ado-ado)

Chain of GRASP, Q7Z6J2 (Q7Z6J2 96-193): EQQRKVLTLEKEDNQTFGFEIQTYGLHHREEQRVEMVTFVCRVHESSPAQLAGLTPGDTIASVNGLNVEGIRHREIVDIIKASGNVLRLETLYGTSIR

**Q.** AHGSTRDQSI [KCNB1, Q14721] was tested. Which pKd did it give?
**A.** below the threshold

Molecular target: GRID2IP_1, A4D2P6
Assay: holdup assay
Set-up: key: below the threshold = too weak to quantify, mostly under pKd 3.1 to 4
Conditions: plain residues with an end cap or a label only (N-terminal biotin on a linker: ado-ado)

Chain of GRID2IP_1, A4D2P6 (A4D2P6 1-87): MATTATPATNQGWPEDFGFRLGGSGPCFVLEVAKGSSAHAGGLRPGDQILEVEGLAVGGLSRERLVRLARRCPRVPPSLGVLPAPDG

**Q.** How did the pKd turn out when AHGSTRDQSI [KCNB1, Q14721] was run?
**A.** below the threshold

Molecular target: Inadl_1, Q8NI35
Assay: holdup assay
Set-up: key: below the threshold = too weak to quantify, mostly under pKd 3.1 to 4
Conditions: plain residues with an end cap or a label only (N-terminal biotin on a linker: ado-ado)

Chain of Inadl_1, Q8NI35 (Q8NI35 113-229): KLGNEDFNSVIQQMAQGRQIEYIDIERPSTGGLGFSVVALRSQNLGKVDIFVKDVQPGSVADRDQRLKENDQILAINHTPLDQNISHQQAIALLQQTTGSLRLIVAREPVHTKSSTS

**Q.** For AHGSTRDQSI [KCNB1, Q14721], which pKd is on record?
**A.** below the threshold

Molecular target: Inadl_10, Q8NI35
Assay: holdup assay
Set-up: key: below the threshold = too weak to quantify, mostly under pKd 3.1 to 4
Conditions: plain residues with an end cap or a label only (N-terminal biotin on a linker: ado-ado)

Chain of Inadl_10, Q8NI35 (Q8NI35 1673-1763): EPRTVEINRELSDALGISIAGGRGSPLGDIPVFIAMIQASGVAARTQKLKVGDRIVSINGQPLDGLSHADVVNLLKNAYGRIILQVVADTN

**Q.** With AHGSTRDQSI [KCNB1, Q14721] as the binder, how does the pKd read?
**A.** below the threshold

Molecular target: Inadl_5, Q8NI35
Assay: holdup assay
Set-up: key: below the threshold = too weak to quantify, mostly under pKd 3.1 to 4
Conditions: plain residues with an end cap or a label only (N-terminal biotin on a linker: ado-ado)

Chain of Inadl_5, Q8NI35 (Q8NI35 673-780): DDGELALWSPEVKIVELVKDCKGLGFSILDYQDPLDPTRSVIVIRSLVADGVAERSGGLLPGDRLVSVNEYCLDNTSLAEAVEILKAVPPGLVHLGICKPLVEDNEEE

**Q.** Which pKd does the source give for AHGSTRDQSI [KCNB1, Q14721] here?
**A.** below the threshold

Molecular target: Inadl_9, Q8NI35
Assay: holdup assay
Set-up: key: below the threshold = too weak to quantify, mostly under pKd 3.1 to 4
Conditions: plain residues with an end cap or a label only (N-terminal biotin on a linker: ado-ado)

Chain of Inadl_9, Q8NI35 (Q8NI35 1530-1615): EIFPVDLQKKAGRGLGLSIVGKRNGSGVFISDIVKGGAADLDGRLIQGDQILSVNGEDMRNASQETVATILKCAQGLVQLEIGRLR

**Q.** Which pKd does the source give for AHGSTRDQSI [KCNB1, Q14721] here?
**A.** below the threshold

Molecular target: T4, LIN7A, O14910
Assay: holdup assay
Set-up: key: below the threshold = too weak to quantify, mostly under pKd 3.1 to 4
Conditions: plain residues with an end cap or a label only (N-terminal biotin on a linker: ado-ado)

**Q.** AHGSTRDQSI [KCNB1, Q14721] was tested. Which pKd did it give?
**A.** below the threshold

Molecular target: T5, LIN7B, Q9HAP6
Assay: holdup assay
Set-up: key: below the threshold = too weak to quantify, mostly under pKd 3.1 to 4
Conditions: plain residues with an end cap or a label only (N-terminal biotin on a linker: ado-ado)

**Q.** For AHGSTRDQSI [KCNB1, Q14721], which pKd is on record?
**A.** 3.68

Molecular target: LNX1_1, Q8TBB1
Assay: holdup assay
Set-up: key: below the threshold = too weak to quantify, mostly under pKd 3.1 to 4
Conditions: plain residues with an end cap or a label only (N-terminal biotin on a linker: ado-ado)

Chain of LNX1_1, Q8TBB1 (Q8TBB1 261-371): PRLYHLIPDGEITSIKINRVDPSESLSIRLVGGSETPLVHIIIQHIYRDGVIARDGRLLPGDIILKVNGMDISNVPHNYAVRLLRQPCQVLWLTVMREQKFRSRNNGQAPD

**Q.** AHGSTRDQSI [KCNB1, Q14721] was tested. Which pKd did it give?
**A.** below the threshold

Molecular target: MAGI2_2, Q86UL8
Assay: holdup assay
Set-up: key: below the threshold = too weak to quantify, mostly under pKd 3.1 to 4
Conditions: plain residues with an end cap or a label only (N-terminal biotin on a linker: ado-ado)

Chain of MAGI2_2, Q86UL8 (Q86UL8 410-522): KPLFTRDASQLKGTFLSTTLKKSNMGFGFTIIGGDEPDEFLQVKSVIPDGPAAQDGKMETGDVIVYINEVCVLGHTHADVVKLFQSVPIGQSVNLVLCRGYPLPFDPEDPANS

**Q.** Which pKd does the source give for AHGSTRDQSI [KCNB1, Q14721] here?
**A.** below the threshold

Molecular target: MAGI2_6, Q86UL8
Assay: holdup assay
Set-up: key: below the threshold = too weak to quantify, mostly under pKd 3.1 to 4
Conditions: plain residues with an end cap or a label only (N-terminal biotin on a linker: ado-ado)

Chain of MAGI2_6, Q86UL8 (Q86UL8 1141-1229): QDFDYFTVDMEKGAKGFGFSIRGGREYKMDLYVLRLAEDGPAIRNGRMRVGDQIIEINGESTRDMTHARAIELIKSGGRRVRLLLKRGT

**Q.** AHGSTRDQSI [KCNB1, Q14721] was tested. Which pKd did it give?
**A.** below the threshold

Molecular target: MAST2, Q6P0Q8
Assay: holdup assay
Set-up: key: below the threshold = too weak to quantify, mostly under pKd 3.1 to 4
Conditions: plain residues with an end cap or a label only (N-terminal biotin on a linker: ado-ado)

Chain of MAST2, Q6P0Q8 (Q6P0Q8 1099-1202): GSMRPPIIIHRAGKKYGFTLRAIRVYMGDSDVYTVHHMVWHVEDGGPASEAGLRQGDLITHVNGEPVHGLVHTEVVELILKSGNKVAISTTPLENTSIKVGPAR

**Q.** For AHGSTRDQSI [KCNB1, Q14721], which pKd is on record?
**A.** below the threshold

Molecular target: T6, MPDZ_12, O75970
Assay: holdup assay
Set-up: key: below the threshold = too weak to quantify, mostly under pKd 3.1 to 4
Conditions: plain residues with an end cap or a label only (N-terminal biotin on a linker: ado-ado)

**Q.** With AHGSTRDQSI [KCNB1, Q14721] as the binder, how does the pKd read?
**A.** 3.62

Molecular target: NHERF2_2, Q15599
Assay: holdup assay
Set-up: key: below the threshold = too weak to quantify, mostly under pKd 3.1 to 4
Conditions: plain residues with an end cap or a label only (N-terminal biotin on a linker: ado-ado)

Chain of NHERF2_2, Q15599 (Q15599 142-238): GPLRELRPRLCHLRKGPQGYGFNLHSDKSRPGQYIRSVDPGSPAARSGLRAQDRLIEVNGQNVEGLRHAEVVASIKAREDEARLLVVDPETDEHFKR

**Q.** With AHGSTRDQSI [KCNB1, Q14721] as the binder, how does the pKd read?
**A.** below the threshold

Molecular target: NHERF4_4, Q86UT5
Assay: holdup assay
Set-up: key: below the threshold = too weak to quantify, mostly under pKd 3.1 to 4
Conditions: plain residues with an end cap or a label only (N-terminal biotin on a linker: ado-ado)

Chain of NHERF4_4, Q86UT5 (Q86UT5 464-550): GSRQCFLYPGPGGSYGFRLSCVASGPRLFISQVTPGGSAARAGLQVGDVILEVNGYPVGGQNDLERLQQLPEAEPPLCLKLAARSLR

**Q.** For AHGSTRDQSI [KCNB1, Q14721], which pKd is on record?
**A.** 4.01

Molecular target: T7, PCLO, Q9Y6V0
Assay: holdup assay
Set-up: key: below the threshold = too weak to quantify, mostly under pKd 3.1 to 4
Conditions: plain residues with an end cap or a label only (N-terminal biotin on a linker: ado-ado)

**Q.** With AHGSTRDQSI [KCNB1, Q14721] as the binder, how does the pKd read?
**A.** below the threshold

Molecular target: T8, PTPN13_1, Q12923
Assay: holdup assay
Set-up: key: below the threshold = too weak to quantify, mostly under pKd 3.1 to 4
Conditions: plain residues with an end cap or a label only (N-terminal biotin on a linker: ado-ado)

**Q.** With AHGSTRDQSI [KCNB1, Q14721] as the binder, how does the pKd read?
**A.** below the threshold

Molecular target: T9, SHANK1, Q9Y566
Assay: holdup assay
Set-up: key: below the threshold = too weak to quantify, mostly under pKd 3.1 to 4
Conditions: plain residues with an end cap or a label only (N-terminal biotin on a linker: ado-ado)

**Q.** With AHGSTRDQSI [KCNB1, Q14721] as the binder, how does the pKd read?
**A.** 3.78

Molecular target: T10, TX1BP3, O14907
Assay: holdup assay
Set-up: key: below the threshold = too weak to quantify, mostly under pKd 3.1 to 4
Conditions: plain residues with an end cap or a label only (N-terminal biotin on a linker: ado-ado)

**Q.** For AHGSTRDQSI [KCNB1, Q14721], which pKd is on record?
**A.** 4.1

Reference: PMC9482650, “Quantitative fragmentomics allow affinity mapping of interactomes” (Nature Communications, 2022)
